Measurements published in article PMC11551755, “Structure-based discovery of first inhibitors targeting the helicase activity of human PIF1” (Nucleic Acids Research, 2024).

Assays:
hPIF1HD V258A = target: T1, hPIF1HD V258A (Homo sapiens, UniProt Q9H611 206-620, V258A); experiment: EMSA; 5 mM AMP-PNP, 5.5 mM MgCl2; no inhibitor; 20 mM HEPES-NaOH pH 7.5, 20 mM NaCl, 5.5 mM MgCl2, 5 mM AMP-PNP, 1 mM DTT, 0.1 mg/ml BSA; 0.25 nM DNA; binding temperature not stated explicitly (helicase assay conditions 37 C); 5% PAGE, 0.25x TBE; details: protein: recombinant; tags: N-terminal His6 removed; GSRM cloning residues remain; label: 5'-32P; single strand
T1 sequence: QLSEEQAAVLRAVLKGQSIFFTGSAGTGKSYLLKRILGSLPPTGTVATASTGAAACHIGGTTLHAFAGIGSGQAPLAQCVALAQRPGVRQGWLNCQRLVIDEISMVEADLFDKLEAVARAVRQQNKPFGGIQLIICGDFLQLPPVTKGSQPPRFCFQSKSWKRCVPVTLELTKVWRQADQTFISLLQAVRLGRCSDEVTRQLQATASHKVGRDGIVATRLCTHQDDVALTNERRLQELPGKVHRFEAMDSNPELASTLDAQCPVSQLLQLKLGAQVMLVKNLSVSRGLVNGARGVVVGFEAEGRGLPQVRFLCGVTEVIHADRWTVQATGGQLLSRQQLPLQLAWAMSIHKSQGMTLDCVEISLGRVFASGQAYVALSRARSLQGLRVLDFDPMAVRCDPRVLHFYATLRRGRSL

hPIF1HD V258L = target: T2, hPIF1HD V258L (Homo sapiens, UniProt Q9H611 206-620, V258L); experiment: as above; details: protein: recombinant; tags: N-terminal His6 removed; GSRM cloning residues remain; label: 5'-32P; single strand
T2 sequence: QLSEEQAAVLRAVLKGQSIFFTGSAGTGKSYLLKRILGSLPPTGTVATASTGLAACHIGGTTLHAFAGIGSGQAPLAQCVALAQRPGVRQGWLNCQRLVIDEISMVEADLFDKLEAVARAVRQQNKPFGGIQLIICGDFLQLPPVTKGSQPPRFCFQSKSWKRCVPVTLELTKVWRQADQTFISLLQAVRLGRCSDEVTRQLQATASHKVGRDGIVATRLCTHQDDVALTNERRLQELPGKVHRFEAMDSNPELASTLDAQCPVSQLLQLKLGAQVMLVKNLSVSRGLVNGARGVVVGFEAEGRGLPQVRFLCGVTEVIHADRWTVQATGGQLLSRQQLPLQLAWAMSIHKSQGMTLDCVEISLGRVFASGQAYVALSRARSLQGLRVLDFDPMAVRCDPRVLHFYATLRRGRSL

B1: oligo d(T)55 (ssDNA)
DNA: TTTTTTTTTTTTTTTTTTTTTTTTTTTTTTTTTTTTTTTTTTTTTTTTTTTTTTT
- binding signal (hPIF1HD V258A): ~2 fold reduced vs wild type
- binding signal (hPIF1HD V258L): ~1 fold vs wild type (near equivalent)
